Data as given in the DeepSol protein solubility set.

Experiment: soluble on expression in E. coli; label from the status in PepcDB or PDB records

Row | Sequence | soluble on expression in E. coli
1 | GEVASVPLTNYLDSQYFGKIYLGTPPQEFTVLFDTGSSDFWVPSIYCKSNACKNHQRFDPRKSSTFQNLGKPLSIHYGTGSMQGILGYDTVTVSNIVDIQQTVGLSTQEPGDVFTYAEFDGILGMAYPSLASEYSIPVFDNMMNRHLVAQDLFSVYMDRNGQESMLTLGAIDPSYYTGSLHWVPVTVQQYWQFTVDSVTISGVVVACEGGCQAILDTGTSKLVGPSSDILNIQQAIGATQNQYGEFDIDCDNLSYMPTVVFEINGKMYPLTPSAYTSQDQGFCTSGFQSENHSQKWILGDVFIREYYSVFDRANNLVGLAKAI | soluble
2 | MGSDKIHHHHHHIASQENCSNKEDLTNRAEDFQSDFVKTMDIIKEHHVAYGNSNARNMLEVREQILQEKGFDDIYVQKKHAENCTAIAELPRVLAKIDELKNTGDEKTVLEYVSRGLLAGNVFDWGAKEVVKMMNSESGLTFQTAIDHVENRPWLFDGFDSFYKKHKEYKSVLIFVDNSGFDYILGIIPFARELLRNGSRVIICANTSPALNDLTYREMVELAPELKNADSDLAKFIDSNQMMFVQTGQESPCMDARRVHQDLNETVKKFNTDLVVIEGMGRALHTNFNVQFKCDSLKAAVIKTQWLADRLGGKMFSVVFKHE | not soluble
3 | MGSDKIHHHHHHMYRVFVFDLDGTLLNDNLEISEKDRRNIEKLSRKCYVVFASGRMLVSTLNVEKKYFKRTFPTIAYNGAIVYLPEEGVILNEKIPPEVAKDIIEYIKPLNVHWQAYIDDVLYSEKDNEEIKSYARHSNVDYRVEPNLSELVSKMGTTKLLLIDTPERLDELKEILSERFKDVVKVFKSFPTYLEIVPKNVDKGKALRFLRERMNWKKEEIVVFGDNENDLFMFEEAGLRVAMENAIEKVKEASDIVTLTNNDSGVSYVLERISTDCLDE | not soluble
4 | MEAKQTVFVNEFTNGILDPHGNMLGPVQDGGYIVANTTPGCWGPMITPCIRGGHEVTKPVFVEGAEVGDAIAIKIKSIRVTSIATSSGNDKPMEGRFVGDPFVAVKCPQCGTMYPETKIEGIGPEAIRCANCGADVTPFVFTNGYTMTFDPNRQIGVTVHKEAAEHIARQGRYYMATPDNSVQNPIVTFAPHDLVGTVARLRPFLGQLGTTPARPLPDSHNAGDFGQFLINAPHEYGITKEQLEDRTDGHMDINRVREGAVLICPVKVRGGGVYLGDMHAMQGDGEIAGHTTDVSGIVTLQVKVIKGLTIDGPILLPVAEDLPYLAKPLTKKEKEIALDLAQSWGVDKLEESLPISFVGTGANLNEATENGLQRAAKTLGISVPEVMNRATITGAIEIGRHPGVITVTFLCPIRYLDKISLTSLVYDQYRSVLE | not soluble
5 | SLVNMNVPDMILYNGKITTLDPSQPEVSAIAITDGLITAVGGDELLNSATEKTKKIDLKRKRAIPGLNDSHIHVIRGGLHYNMELRWEGVPSITIALEMLKEQARRTPAPQWVRVVGGWSEFQFKERRMPTLEEINAVSEDTPVFVLHLYDRALVNRAGLRALGYTKDTPDPPGCLIERDKRGNPTGLLIANPNASILYSSLGKAPILNFDDQINSTRHFMRELNRLGITSAIDAGGGFQNYPDDYRVVEHLAEKEQLTLRIAYNLFTQNPNHEYEDFASWAKIVSPGQGNDKYKMNGAGEMLVFSAADFEKFQMPRPELATMMEADLKKVISLLVENRWPFRLHATYDESITRFLNVFEEVNKEIPFNGLRWWFDHAETISDRSMERVKALNGGIAIQDRMAFQGEYFVDLYGKEAAKRTPPIYRMLDLGIPVGAGSDATRVSSYNPWVALYWMVAGKTIGGLSIYDEKNKLDRKVALELYSKGSAWFSGDEGKKGTLAVGQFADIAVLSADYFTVPEEEIKDLESLLTIMGGQVVYGNDEFKNLSPELPPASPDWSPTGVYGYGGANLAHTILSHDSHDNKLHSCSNPLHQHTHTVIGKDGTKWGIGCTCFAF | soluble
6 | MGSDKIHHHHHHMLSMAGQVIAEDTAKAIEAAVHHEARLERDKARDGSRHPEAILNFFEVAPGQRVLDLFSGGGYYSELLARVVGEQGSVLVHNNQAYLPFAKEDLAERHYQERLPNAEVIISEADELQLPAASFDRIFFILGFHDTYYHEPGWPAIDRERLLQQMFTSLKPGGIVAIIDHDAAPESDTDTAHELHRLAKRHVVDAMEAAGFKLQGSLAVLENPEDKLTLSAFDEAVRGKTSRYVLMFVKPKL | not soluble
7 | MAMSNMTYNNVFDHAYEMLKENIRYDDIRDTDDLHDAIHMAADNAVPHYYADIFSVMASEGIDLEFEDSGLMPDTKDVIRILQARIYEQLTIDLWEDAEDLLNEYLEEVEEYEEDEE | soluble
8 | MKSYLVGGAVRDALLGLPVKDRDWVVVGATPQQMLDAGYQQVGRDFPVFLHPQSREEYALARTERKSGAGYTGFTCYAAPDVTLEADLLRRDLTVNALAQDADGAIIDPYGGQNDLRKRLLRHVSPAFSEDPLRVLRVARFAARYAHLGFRIAEETQALMAAIVEAGELAHLTPERVWKETESALTTRNPQVFFQTLRDCQALKVLFPEIDALYGVPAPAKWHPEIDTGLHTLMTVTMAAMLSPDVDVRFATLCHDLGKGLTPKALWPRHHGHGPAGVKLVEQLCARLRVPNDIRDLAKLVAEYHDLIHTLPILQPKTLVKLFDSIDAWRKPQRVQQIALTSEADVRGRTGFEASDYPQGRLLLEAWEVAQSVSTKEVVAAGFKGAEIREELTRRRIAAVAQWKEQRCPQPQG | not soluble
9 | MSIPFTRWPEEFARRYREKGYWQDLPLTDILTRHAASDSIAVIDGERQLSYRELNQAADNLACSLRRQGIKPGETALVQLGNVAELYITFFALLKLGVAPVLALFSHQRSELNAYASQIEPALLIADRQHALFSGDDFLNTFVTEHSSIRVVQLLNDSGEHNLQDAINHPAEDFTATPSPADEVAYFQLSGGTTGTPKLIPRTHNDYYYSVRRSVEICQFTQQTRYLCAIPAAHNYAMSSPGSLGVFLAGGTVVLAADPSATLCFPLIEKHQVNVTALVPPAVSLWLQALIEGESRAQLASLKLLQVGGARLSATLAARIPAEIGCQLQQVFGMAEGLVNYTRLDDSAEKIIHTQGYPMCPDDEVWVADAEGNPLPQGEVGRLMTRGPYTFRGYYKSPQHNASAFDANGFYCSGDLISIDPEGYITVQGREKDQINRGGEKIAAEEIENLLLRHPAVIYAALVSMEDELMGEKSCAYLVVKEPLRAVQVRRFLREQGIAEFKLPDRVECVDSLPLTAVGKVDKKQLRQWLASRASA | soluble
10 | MSLRGGEDSPVDGARQAAANVFGPIENGVSSAVDPVGNAVSAVRDSGDRHDRLARLETENAALKAKSGSDERGRSRLKQFDKMLGLAGAGQYGIKGAQVIAIGAAQGFSWTITIDAGANDGVKRDMTVLNGDGLVGRVTTVGPNTATVLLANDPDFTVGTRMESGDELGFASGQGSRPLRVELLNGKADVKKGDRLVTFGSQADKPFVPGVPVGTITRVDPNGGDLTRILDVTPFVSFTKLDIVGVVVQAPSKDPRDTVLPEKKQPKPTPTVTVTVTPGADPEGQTRNDEAGQDEAAGQNDATGQNDQTEQQNEQPEPEGHHHHHH | soluble
11 | MAAYYRWKSFEENEDRPEKPRRYGVTEMRGPHYSVLSQNLLQEIFESMGQFVDGLKFSGGSNSLIPKSFIKQAIEMAHEHGVYVSTGDWAEHMLRSGPSAFKDYVEECKQLGFDTIELNANLLEVPEETLLRYVRLIKNGGLRAKPMFAVKFNKSDIPGRNRAFGSYVVPEPRSSEFVEDIDLLIRKAERCLEAGADTIMIDADDVCKYADSLRADIIAKVIGRLGIEKTMFEASDAKLVEWFIKRYGPNVNLYVDHSQIMDLECLRGRHLGKDHQSVLSSSYFLF | soluble
12 | MGSDKIHHHHHHVAETTTEQTIQKASSAIHYNAFSHNDYWRERPLLDALSFRFNCVEADLWLIDDELYVSHDRPEPNPAITFENLYLKPLVARIQANGGKVYPGSDRPFYLMVDCKAQGEEMYKLLKKQMEPYKEYFCSVDNGEYKEGAVLFFLSGDRPKNSLPKENSRFTFLDGQIKDLGQGIPASLAPVISDNYSDFFTWKGEGEMPADQLQKMREIIRKVHDEGKLFRWWGAPDTEQFKRFFIKEGVDLVGADDLNGLYNVLNER | not soluble
13 | IPADELFSRDALRKVEDIRNKTKNKSYIRKALKKPWNILVGSLPVGFDFPARIIAEIVDAPKLSLEGLVKKANYYLSEGADIVDIGMVAGETNVKFLDVIPEFREVLGREVPISLDSLNAKELEAGLDFVDMILSVDWSNVEDLVTDKPVVLIPTDMKNGYFPLNPRDRVESLEKLKEKALSLGYKRIIADLILEHYPGFSRSIVAFSLYRDRNREDIMLAGVGNVTEMTDADSPGINALLAGIASELRISMLLTTEVSRKCTGSIRELRRAIDMTLLGGVKDVGLNLLLLKEKKDKGLRFEISKNIVEAKRKEVKLEDTYFRIFVDNGKIYVNAYKGMNLVITIVGNEPNEIMDTILDYFSLSPRHAFYLGRELEKAYTALKLRRSYAQEEELFRDFYTK | not soluble
14 | MLITEIFHSIQGEGPYAGLPMLFVRTNVCNIRCEWCDTKYSFYGGKEIPLSELLGIVKEAKEGWVCFTGGEPLVQRDALAFVKSVVDMGKNVLIETNGTISIRNFVFSDRIFIDMDVKPPSAKVTKGFLMDNLRYLRKQDYLKIVIKDDTDLDFAIDFVDRYGEGLSFVFQPAWGSDIRRIADRIVGTGYNVRVLPQIHKIIYGDVPGV | not soluble
15 | MEKRNIQVTRHFVCADQLQQISETVIACLGQEDLITISGGLGPISDDKTRDAVAKAVRQPLFHHEDVWQTIKGQLGWLGSTPDSNNARQALFPETAKVLDNPTGTAPGFYLSCGESILVILTGSLTQAFALLENYLEHGEKKYSSVSRARYAWILIGIDESAIAHWVDCQLANELFERHFYGKALMFSYNWLASHQRFWLSI | not soluble
16 | MKPAYPPLLLQMSPAYTPRPLKNLFTANQCWAHLIEEGGLRDIEVESVTKMLACGTSILGVKHYTCGNHSCPHVKYLCNTCSCRACPSCGKKATDQWIANQQHRLPECTWQHLVFTLPDTLWPLFFHNRHWLDALCRLAVDNLLYAGRRRGVEVGVFCAIHTYGRRLNWHPHIHVSVTLGGIDDAGVWKDLSFHPSALRRRWMWNVRQYLLSQWEHTTVPPENAHLQSENDWRHLVLNAGGQHWHIHLSKKTKNGKKTVNYLGRYLKKPPISGSRLAHYTSGATLSFTYLDHRTKTYQQETLSQTDMLRRVVQHIPEKHFRMIRYFGFLANRVCGRQLPRVYEAIRMERRGKAPKLYFAQMSKAFLHRDPFSCVLCGARMVYTAAIAGLTVQGLINNAQSIAQLRYVPA | not soluble
17 | GEERKCLQTHRVTVHGVPGPEPFTVFTINGGTKAKQLLQQILTNEQDIKPVTTDYFLMEEKYFISKEKNECRKQPFQRAIGPEEEIMQILSSWFPEEGYMGRIVLKTQQE | soluble
